Results as given in patent US20030236190A1 (published 2003).
Positions of bridges follow the written chain, without caps; N, C: chain ends. Non-standard residues stand in square brackets, D forms with d. No end group written: not given here. Tyr(3-I) = N[C@@H](Cc1ccc(O)c(I)c1)C(=O)O

B1: X2CA-2-B4-IGFR (peptide)
peptide: CCLLCRFQQNFYDWFVCQGISRLRPL
modifications: disulfide (positions not given here); also: disulfide among the four cysteines, pairing not given here
B2: S591 (peptide)
peptide: LEEEWAQIECEVWGRGCSGSLDESF[Tyr(3-I)]DWFERQLG
modifications: not fully specified (bridges); printed as LEEEWAQIECEVWGRGCSGSLDESF-IodoTyr-DWFERQLG; cysteine pairing not given here

Molecular target: T1, Soluble IGF-1R (R&D Systems, Cat. # 391-GR/CF); recombinant human IGF-1R (human, UniProt P08069 31-935)
T1 construct: extracellular domain; Eu3+-labelled in the TR-FRET assays; also called sIGF-1R; rhIGF-1R
Test: phage ELISA, vs IR

Row | Binder | IGF-1R/IR Comparison [ratio]
1 | GFREGNFYEWFQAQVT [E4Da-4-H2-IR] | 4.1
2 | B1 | 3.6
3 | QSPVGSSHEDFYDWFFRQVAQSGAHQ [N2CA-3-D6-IGFR] | 4
4 | GFREGSFYDWFQAQVT [E4Dα-2-D11-IR] | 3.4
5 | FRTLAAQHDSFYDWFDRQVSGAAGER [H2CA-3-C11-IGFR] | 2.1
6 | SSIGGGFHENFYDWFSRQLSQSPPLK [N2CA-4-F7-IGFR] | 4.1
7 | HLADGQFHEKFYDWFERQISSRCNDC [H2CA-3-E11-IGFR] | 2.2
8 | NYRRQVFNGNFYDWFDRQVFSLVTPG [142CA-3-D8-IGFR] | 4
9 | RAGSSDFHEDFYEWFVRQVSLSLKGK [H2CA-2-B9-IGFR] | 4.2
10 | PPLASDLDVQFYGWFVQQVSPPGRGG [H2CA-2-B3-IGFR] | 3.6
11 | EAASLGSQDRNFYDWFVRQVV [A6S-2-D11-IR] | 2.8
12 | TSEVQRRSQDNFYDWFVAQVA [A6S-3-E2-IR] | 2.5
13 | FYVQQWGHENFYDWFDRQVSQSGGAG [H2CA-4-F1-IGFR] | 3.8
14 | TFYSCLASLLTGTPQPNRGPWERCR (disulfide 5-24 (inferred)) [20C-3-G3-IGFR] | 27
15 | VERSASSQDGNFYDWFVVQIR [A6S-2-D1-IR] | 2.6
16 | QAVQPGFHEEFYDWFVRQVSTGVGGG [H2CA-4-H4-IGFR] | 4.2
17 | LRRQAPVEENFYDWFVRQVSGDRVGG [H2CA-3-D7-IGFR] | 3.7
18 | GAPVDQLHEDFYDWFVRQVSQAATG [E2CA-2-B2-IGFR] | 3.5
19 | APDPSDFQEIFYDWFVRQVSRMPGGG [H2CA-1-A3-IGFR] | 5.1
20 | VNQSGSIHENFYDWFERQVSHQRGVR [H2CA-4-F1O-IGFR] | 5.9
21 | SQAGSAFYAWFDQVLRTVHSA [20E2Bβ-4-G6-IR] | 3.3
22 | TLDGGSFEEQFYDWFVRQLSYRTNPD [H2CA-4-G11-IGFR] | 3.9
23 | SSCDGAGHESFYEWFVRQVSGCRSV (not fully specified (bridges); cysteine pairing not given here) [H2CA-3-C8-IGFR] | 4.8
24 | RCGRELYHSTFYDWFDRQVAGRTCPS [H2CA-1-A7-IGFR] | 3.7
25 | AVRATRFDEAFYDWFVRQISDGQGNK [H2CA-4-86-GFR] | 6.4
26 | LGYQEPFQQNFYDWFVRQVSGAENAG [E2CA-3-E8-IGFR] | 2.9

Molecular target: T1, Soluble IGF-1R (R&D Systems, Cat. # …)
Test: phage ELISA vs milk

Row | Binder | Ratio over Background [fold]
27 | GFREGNFYEWFQAQVT [E4Da-4-H2-IR] | 33.9
28 | B1 | 4.1
29 | QSPVGSSHEDFYDWFFRQVAQSGAHQ [N2CA-3-D6-IGFR] | 9
30 | GFREGSFYDWFQAQVT [E4Dα-2-D11-IR] | 11.1
31 | FRTLAAQHDSFYDWFDRQVSGAAGER [H2CA-3-C11-IGFR] | 3.3
32 | SSIGGGFHENFYDWFSRQLSQSPPLK [N2CA-4-F7-IGFR] | 3.2
33 | HLADGQFHEKFYDWFERQISSRCNDC [H2CA-3-E11-IGFR] | 2.2
34 | NYRRQVFNGNFYDWFDRQVFSLVTPG [142CA-3-D8-IGFR] | 7.2
35 | RAGSSDFHEDFYEWFVRQVSLSLKGK [H2CA-2-B9-IGFR] | 7
36 | PPLASDLDVQFYGWFVQQVSPPGRGG [H2CA-2-B3-IGFR] | 3.8
37 | EAASLGSQDRNFYDWFVRQVV [A6S-2-D11-IR] | 37.4
38 | TSEVQRRSQDNFYDWFVAQVA [A6S-3-E2-IR] | 24.7
39 | FYVQQWGHENFYDWFDRQVSQSGGAG [H2CA-4-F1-IGFR] | 3.5
40 | TFYSCLASLLTGTPQPNRGPWERCR (disulfide 5-24 (inferred)) [20C-3-G3-IGFR] | 32.3
41 | VERSASSQDGNFYDWFVVQIR [A6S-2-D1-IR] | 30.6
42 | QAVQPGFHEEFYDWFVRQVSTGVGGG [H2CA-4-H4-IGFR] | 4.1
43 | LRRQAPVEENFYDWFVRQVSGDRVGG [H2CA-3-D7-IGFR] | 3
44 | GAPVDQLHEDFYDWFVRQVSQAATG [E2CA-2-B2-IGFR] | 3.4
45 | APDPSDFQEIFYDWFVRQVSRMPGGG [H2CA-1-A3-IGFR] | 3.8
46 | VNQSGSIHENFYDWFERQVSHQRGVR [H2CA-4-F1O-IGFR] | 5.7
47 | SQAGSAFYAWFDQVLRTVHSA [20E2Bβ-4-G6-IR] | 6.2
48 | TLDGGSFEEQFYDWFVRQLSYRTNPD [H2CA-4-G11-IGFR] | 9.5
49 | SSCDGAGHESFYEWFVRQVSGCRSV (not fully specified (bridges); cysteine pairing not given here) [H2CA-3-C8-IGFR] | 5.6
50 | RCGRELYHSTFYDWFDRQVAGRTCPS [H2CA-1-A7-IGFR] | 2.2
51 | AVRATRFDEAFYDWFVRQISDGQGNK [H2CA-4-86-GFR] | 7.3
52 | LGYQEPFQQNFYDWFVRQVSGAENAG [E2CA-3-E8-IGFR] | 6.3

Molecular target: T2, Insulin receptor prepared according to Bass et al., 1996: soluble human insulin receptor-immunoglobulin heavy … (human, UniProt P06213 28-956)
T2 construct: extracellular domain; Eu3+-labelled in TR-FRET; also called IR; sIR-Fc; not shown: immunoglobulin heavy chain constant domains that replace the transmembrane and i
Test: phage ELISA vs milk

Row | Binder | Ratio over Background [fold]
53 | GFREGNFYEWFQAQVT [E4Da-4-H2-IR] | 8.2
54 | B1 | 1.1
55 | QSPVGSSHEDFYDWFFRQVAQSGAHQ [N2CA-3-D6-IGFR] | 2.2
56 | GFREGSFYDWFQAQVT [E4Dα-2-D11-IR] | 3.3
57 | FRTLAAQHDSFYDWFDRQVSGAAGER [H2CA-3-C11-IGFR] | 1.6
58 | SSIGGGFHENFYDWFSRQLSQSPPLK [N2CA-4-F7-IGFR] | 0.8
59 | HLADGQFHEKFYDWFERQISSRCNDC [H2CA-3-E11-IGFR] | 1
60 | NYRRQVFNGNFYDWFDRQVFSLVTPG [142CA-3-D8-IGFR] | 1.8
61 | RAGSSDFHEDFYEWFVRQVSLSLKGK [H2CA-2-B9-IGFR] | 1.7
62 | PPLASDLDVQFYGWFVQQVSPPGRGG [H2CA-2-B3-IGFR] | 1
63 | EAASLGSQDRNFYDWFVRQVV [A6S-2-D11-IR] | 13.9
64 | TSEVQRRSQDNFYDWFVAQVA [A6S-3-E2-IR] | 9.8
65 | FYVQQWGHENFYDWFDRQVSQSGGAG [H2CA-4-F1-IGFR] | 0.9
66 | TFYSCLASLLTGTPQPNRGPWERCR (disulfide 5-24 (inferred)) [20C-3-G3-IGFR] | 1.2
67 | VERSASSQDGNFYDWFVVQIR [A6S-2-D1-IR] | 12
68 | QAVQPGFHEEFYDWFVRQVSTGVGGG [H2CA-4-H4-IGFR] | 1
69 | LRRQAPVEENFYDWFVRQVSGDRVGG [H2CA-3-D7-IGFR] | 0.8
70 | GAPVDQLHEDFYDWFVRQVSQAATG [E2CA-2-B2-IGFR] | 1
71 | APDPSDFQEIFYDWFVRQVSRMPGGG [H2CA-1-A3-IGFR] | 0.8
72 | VNQSGSIHENFYDWFERQVSHQRGVR [H2CA-4-F1O-IGFR] | 1
73 | SQAGSAFYAWFDQVLRTVHSA [20E2Bβ-4-G6-IR] | 1.9
74 | TLDGGSFEEQFYDWFVRQLSYRTNPD [H2CA-4-G11-IGFR] | 2.5
75 | SSCDGAGHESFYEWFVRQVSGCRSV (not fully specified (bridges); cysteine pairing not given here) [H2CA-3-C8-IGFR] | 1.2
76 | RCGRELYHSTFYDWFDRQVAGRTCPS [H2CA-1-A7-IGFR] | 0.6
77 | AVRATRFDEAFYDWFVRQISDGQGNK [H2CA-4-86-GFR] | 1.1
78 | LGYQEPFQQNFYDWFVRQVSGAENAG [E2CA-3-E8-IGFR] | 2.2

Molecular target: T2, Insulin receptor prepared according to …
Test: phage ELISA, vs IGF-1R

Row | Binder | IR/IGF-1R Comparison [ratio]
79 | GFREGNFYEWFQAQVT [E4Da-4-H2-IR] | 0.2
80 | B1 | 0.3
81 | QSPVGSSHEDFYDWFFRQVAQSGAHQ [N2CA-3-D6-IGFR] | 0.3
82 | GFREGSFYDWFQAQVT [E4Dα-2-D11-IR] | 0.3
83 | FRTLAAQHDSFYDWFDRQVSGAAGER [H2CA-3-C11-IGFR] | 0.5
84 | SSIGGGFHENFYDWFSRQLSQSPPLK [N2CA-4-F7-IGFR] | 0.2
85 | HLADGQFHEKFYDWFERQISSRCNDC [H2CA-3-E11-IGFR] | 0.5
86 | NYRRQVFNGNFYDWFDRQVFSLVTPG [142CA-3-D8-IGFR] | 0.3
87 | RAGSSDFHEDFYEWFVRQVSLSLKGK [H2CA-2-B9-IGFR] | 0.2
88 | PPLASDLDVQFYGWFVQQVSPPGRGG [H2CA-2-B3-IGFR] | 0.3
89 | EAASLGSQDRNFYDWFVRQVV [A6S-2-D11-IR] | 0.4
90 | TSEVQRRSQDNFYDWFVAQVA [A6S-3-E2-IR] | 0.4
91 | FYVQQWGHENFYDWFDRQVSQSGGAG [H2CA-4-F1-IGFR] | 0.3
92 | TFYSCLASLLTGTPQPNRGPWERCR (disulfide 5-24 (inferred)) [20C-3-G3-IGFR] | < 0.1
93 | VERSASSQDGNFYDWFVVQIR [A6S-2-D1-IR] | 0.4
94 | QAVQPGFHEEFYDWFVRQVSTGVGGG [H2CA-4-H4-IGFR] | 0.2
95 | LRRQAPVEENFYDWFVRQVSGDRVGG [H2CA-3-D7-IGFR] | 0.3
96 | GAPVDQLHEDFYDWFVRQVSQAATG [E2CA-2-B2-IGFR] | 0.3
97 | APDPSDFQEIFYDWFVRQVSRMPGGG [H2CA-1-A3-IGFR] | 0.2
98 | VNQSGSIHENFYDWFERQVSHQRGVR [H2CA-4-F1O-IGFR] | 0.2
99 | SQAGSAFYAWFDQVLRTVHSA [20E2Bβ-4-G6-IR] | 0.3
100 | TLDGGSFEEQFYDWFVRQLSYRTNPD [H2CA-4-G11-IGFR] | 0.3
101 | SSCDGAGHESFYEWFVRQVSGCRSV (not fully specified (bridges); cysteine pairing not given here) [H2CA-3-C8-IGFR] | 0.2
102 | RCGRELYHSTFYDWFDRQVAGRTCPS [H2CA-1-A7-IGFR] | 0.3
103 | AVRATRFDEAFYDWFVRQISDGQGNK [H2CA-4-86-GFR] | 0.2
104 | LGYQEPFQQNFYDWFVRQVSGAENAG [E2CA-3-E8-IGFR] | 0.3

Molecular target: human insulin receptor (HIR) (human, UniProt P06213 28-1382, limits assumed)
Test: 125I-insulin competition, solubilised HIR

Row | Binder | Kd [pM]
105 | LEEEWAQIECEV[Tyr(3-I)]GRGCSGSLDESFYDWFERQLG (cysteine pairing not given here) [S590] | 58
106 | B2 | 130
107 | LEEEWAQVECEV[Tyr(3-I)]GRGCSGSLDESFYDWFERQLG (cysteine pairing not given here) [S588] | 180
108 | SLEEEWAQIQEDLYGANHNESFYDWFERQL [S601] | 180
109 | SLEEEWAQIQHELYGPAESESFYD[dW]FERQL [S596] | 45
110 | SLEEEWAQIQAEVYGNPNSESFYDWFERQL [S602] | 31
111 | SIEEEWAQIKCDVWGRGCPSY [S593] | 22
112 | SLEEEWAQIQHELWPVEKGESFYDWFERQL [S605] | 94
113 | SLEEEWAQIECEVWGRGCPSY [S592] | 1700
114 | SLEEEWAQIECEVWGRCWHHSFYDWFERQL [S594] | 71
115 | LEEEWAQIQREVWHS[dP]ASESF[dY]D[dW]FERQL [S595] | 620
116 | SLEEEWAQIECEVYGRGCPSESFYDWFERQL (not fully specified; N-terminal acetyl) [S597] | 8.5
117 | Ac-SLEEEWAQIQEDLYGANHNESFYDWFERQL [S603] | 15
